Experimental data published in patent US20120195831A1 (published 2012).

B1: PO-3H7-E3 (antibody, V domains shown)
VH: EVQLQQSGAELVKPGASVKISCKASGYSFTGYYMNWVKQSHGKSLEWIGNINPYYGGSNYNQKFKARATLTVDKSSSTAYMQLNSLTSEDSAVYYCARKGDLYYSMDYWGQGTSVTVSS
VL: DIVMTQTPLSLPVSLGDQASISCRSSQSIVHSNGNTYLEWYLQKPGQSPKLLIYKVSNRFSGVPDRFSGSGSGTDFTLKISRVEAEDLGIYYCFQGSHVPPTFGGGTKLELKR
notes: Purified mouse IgG from a hybridoma; also called PO-3H7-E3-HC; PO-3H7-E3-LC
B2: PO-1G2-B6 (antibody, V domains shown)
VH: EVQLQQSGPELVKPGASVKISCKASGYSFTGYHIHWMKQSHVESLEWIGRINPYSGVTDYNQNFKDKANLTVDQSSSTAYMELHSLTSEDSAFYYCARTDYYGPWFAYWGQGTLVTVSA
VL: DIQMTQSPLSLPVSLGDQASISCRSSPSLVHSNGNTYLHWYLQKPGQSPKLLIYTVSNRFSGVPDRFSGSGSGTDFTLKINRVEAEDLGVYFCSQTTHVPWTFGGGTKLEIKR
notes: Purified mouse IgG from a hybridoma; also called PO-1G2-B6-HC; PO-1G2-B6-LC

How the values were obtained:
[1] = target: T1, human Her3 receptor on cells (T47D, MCF7) (human, UniProt P21860 20-1342); assay: cell-based or functional assay
[2] = target: T1, human Her3 receptor on cells (T47D, …); assay: cell-based or functional assay; remark: listed apart in the source
[3] = target: T1, human Her3 receptor on cells (T47D, …); assay: cell-based or functional assay; remark: listed apart in the source
[4] = target: T2, EGFR on CHO cells (CHO-EGFR) (UniProt P00533 25-1210, limits assumed); assay: FACS on CHO-EGFR cells, purified IgG, R-PE anti-mouse IgG
T2 construct: whole, on cells
Procedure: (§1) CHO-Her2, CHO-Her4, CHO-EGFR cells were harvested and resuspended in PBS, 2% FBS at a concentration of approximately 1×10⁶/ml. Cells were stained with purified IgGs at 4° C. for 40 min. Cells were washed with 4 mL PBS, 2% FBS, then centrifuged at 1200 rpm for 10 minutes. Supernatant was removed. Cells were stained with R-PE conjugated anti-mouse IgG at 4° C. for 30 min. Cells were washed with 4 mL PBS, 2% FBS, then centrifuged at 1200 rpm for 10 minutes. Supernatant was removed and cell pellets were fixed in 1% formaldehyde. Cells were analyzed on a FACS Calibur (BD Biosciences) by collecting 20,000 events from gate 1.

[5] = target: T3, Her2 on CHO cells (CHO-Her2) (UniProt P04626 23-1255, limits assumed); assay: FACS on CHO-Her2 cells, purified IgG, R-PE anti-mouse IgG
T3 construct: whole, on cells
Procedure: as §1

[6] = target: T4, Her4 on CHO cells (CHO-Her4) (UniProt Q15303 26-1308, limits assumed); assay: FACS on CHO-Her4 cells, purified IgG, R-PE anti-mouse IgG
T4 construct: whole, on cells
Procedure: as §1

mouse HER3/ErbB3 = target: T5, mouse HER3/ErbB3 (mouse, UniProt Q61526); assay: FACS, purified IgG on CHO cells expressing mouse Her3, R-PE anti-mouse IgG
T5 construct: receptor expressed on CHO cells; also called mouse Her3 receptor on CHO cells
Procedure: as §1, with “CHO cell lines expressing human or mouse Her3 receptors were used to study species-cross reactivity. Cells” for “CHO-Her2, CHO-Her4, CHO-EGFR cells”

[7] = target: T6, Recombinant Human Her3 (Her3/ErbB3 extracellular domain) (human, UniProt P21860 20-643); assay: SPR (BIAcore), Mab captured by anti-IgG Fc on CM5 chip, recombinant human Her3 as analyte, 25 °C
T6 construct: Analyte of the BIAcore assay; also called Her3 ECD; human Her3/ErbB3 extracellular domain
Procedure: All experiments were performed at 25° C. at a flow rate of 40 μl/min. To prepare a BIAcore assay, an anti-human IgG-Fc antibody (50 μg/ml each in acetate buffer, pH 5.0) was immobilized onto a carboxymethyl dextran sensorchip (CM5) using amine coupling procedures as described by the manufacturer. 10000 resonance units (RU) of anti-mouse IgG Fc antibodies were linked respectively onto Flowcells (FC) 1 and 2. Purified Mabs to be tested were diluted at a concentration of 5 μg/ml in 0.5% P20, HBS-EP buffer and injected on FC2 to reach 500 to 1000 RU. FC1 was used as the reference cell. Specific signals correspond to the difference of signals obtained on FC2 versus FC1. The analyte (Recombinant Human Her3, apparent molecular weight 97 kDa) was injected during 90 sec at 5 different concentrations (100, 50, 25, 12.5 and 6.25 nM) in 0.5% P20, HBS-EP buffer. These concentrations were prepared from stock solution in 0.5% P20, HBS-EP. The dissociation phase of the analyte was monitored over a 10 minutes period. Running buffer was also injected under the same conditions as a double reference. After each cycle (antibody+Her3 injection), both Flowcells were regenerated by injecting 20 to 45 μl of Glycine-HCl buffer pH 1.5. This regeneration is sufficient to eliminate all Mabs and Mabs/Her3 complexes captured on the sensorchip. Table 1 listed binding KD for Her3 binding monoclonal antibodies.

Her3/Avi/His10 receptor [8] = target: T7, Her3/Avi/His10 receptor (Homo sapiens (Human), UniProt P21860 20-643, limits assumed); assay: AlphaScreen competition; antibody titrated against 10 nM biotinylated NRG-1 beta and 10 nM Her3/Avi/His10; n = 3
T7 construct: Soluble tagged receptor of the AlphaScreen assay; The antibodies are called anti-hHer3 there; not shown: Avi tag; His10 tag (ten histidines by its name)
Procedure: (§2) SDI or Genovac purified anti-hHer3 Mabs were serially diluted two-fold into an assay buffer made from 25 mM Hepes, 100 mM NaCl, 0.5% BSA and 0.05% Tween20 in an opaque/white, half-well area plate (Costar). Mouse IgG1 antibody was used as a negative control (Southern Biotech; cat #010201). Biotinylated NRG-1 beta ligand and Her3/Avi/His₁₀ receptor were added sequentially at 10 nM concentration to the assay plate containing serially diluted antibodies. This mixture of receptor, ligand and the antibodies was incubated at room temperature with gentle shaking for 90 minutes. AlphaScreen Streptavidin Donor beads and His-Nickel chelate Acceptor beads were added into the assay at a final concentration of 20 μg/ml each. The light sensitive beads were handled under chromagreen filtered light. The assay plates were covered with foil and incubated at room temperature with gentle shaking for 1 hour. The plates were read in PE EnVision plate reader equipped with an Alpha module (dedicated laser for excitation and designed to measure the signal above the well). Table 7 listed IC₅₀ values in ligand blocking that were estimated using four parameter curve fitting with concentration titration graphs (FIGS. 7 A&B).

Her3/Avi/His10 receptor [9] = target: T7, Her3/Avi/His10 receptor; assay: AlphaScreen ligand blocking: antibody titrated against 10 nM biotinylated NRG-1 beta and 10 nM Her3/Avi/His10, % signal
Procedure: as §2

[10] = target: T1, human Her3 receptor on cells (T47D, …); assay: cell-based or functional assay; remark: listed apart in the source

T7 sequence (P21860 20-643 limits assumed): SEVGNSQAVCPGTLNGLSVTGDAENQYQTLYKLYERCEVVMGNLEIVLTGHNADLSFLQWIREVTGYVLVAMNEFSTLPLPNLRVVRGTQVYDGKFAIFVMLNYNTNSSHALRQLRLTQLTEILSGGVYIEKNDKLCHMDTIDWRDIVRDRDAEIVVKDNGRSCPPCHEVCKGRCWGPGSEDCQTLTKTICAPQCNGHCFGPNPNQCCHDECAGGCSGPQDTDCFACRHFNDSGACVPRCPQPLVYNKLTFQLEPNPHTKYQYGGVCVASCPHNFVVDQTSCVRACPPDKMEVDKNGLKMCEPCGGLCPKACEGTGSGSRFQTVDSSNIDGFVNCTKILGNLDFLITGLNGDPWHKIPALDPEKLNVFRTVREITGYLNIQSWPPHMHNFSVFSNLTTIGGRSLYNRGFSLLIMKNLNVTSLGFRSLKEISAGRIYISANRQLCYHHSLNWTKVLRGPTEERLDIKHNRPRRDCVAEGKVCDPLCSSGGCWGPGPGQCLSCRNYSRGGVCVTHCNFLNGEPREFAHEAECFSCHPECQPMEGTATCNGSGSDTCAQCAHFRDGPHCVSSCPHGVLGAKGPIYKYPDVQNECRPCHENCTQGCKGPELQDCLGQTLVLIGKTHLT
T1 sequence (P21860 20-1342 limits assumed, stated change not applied): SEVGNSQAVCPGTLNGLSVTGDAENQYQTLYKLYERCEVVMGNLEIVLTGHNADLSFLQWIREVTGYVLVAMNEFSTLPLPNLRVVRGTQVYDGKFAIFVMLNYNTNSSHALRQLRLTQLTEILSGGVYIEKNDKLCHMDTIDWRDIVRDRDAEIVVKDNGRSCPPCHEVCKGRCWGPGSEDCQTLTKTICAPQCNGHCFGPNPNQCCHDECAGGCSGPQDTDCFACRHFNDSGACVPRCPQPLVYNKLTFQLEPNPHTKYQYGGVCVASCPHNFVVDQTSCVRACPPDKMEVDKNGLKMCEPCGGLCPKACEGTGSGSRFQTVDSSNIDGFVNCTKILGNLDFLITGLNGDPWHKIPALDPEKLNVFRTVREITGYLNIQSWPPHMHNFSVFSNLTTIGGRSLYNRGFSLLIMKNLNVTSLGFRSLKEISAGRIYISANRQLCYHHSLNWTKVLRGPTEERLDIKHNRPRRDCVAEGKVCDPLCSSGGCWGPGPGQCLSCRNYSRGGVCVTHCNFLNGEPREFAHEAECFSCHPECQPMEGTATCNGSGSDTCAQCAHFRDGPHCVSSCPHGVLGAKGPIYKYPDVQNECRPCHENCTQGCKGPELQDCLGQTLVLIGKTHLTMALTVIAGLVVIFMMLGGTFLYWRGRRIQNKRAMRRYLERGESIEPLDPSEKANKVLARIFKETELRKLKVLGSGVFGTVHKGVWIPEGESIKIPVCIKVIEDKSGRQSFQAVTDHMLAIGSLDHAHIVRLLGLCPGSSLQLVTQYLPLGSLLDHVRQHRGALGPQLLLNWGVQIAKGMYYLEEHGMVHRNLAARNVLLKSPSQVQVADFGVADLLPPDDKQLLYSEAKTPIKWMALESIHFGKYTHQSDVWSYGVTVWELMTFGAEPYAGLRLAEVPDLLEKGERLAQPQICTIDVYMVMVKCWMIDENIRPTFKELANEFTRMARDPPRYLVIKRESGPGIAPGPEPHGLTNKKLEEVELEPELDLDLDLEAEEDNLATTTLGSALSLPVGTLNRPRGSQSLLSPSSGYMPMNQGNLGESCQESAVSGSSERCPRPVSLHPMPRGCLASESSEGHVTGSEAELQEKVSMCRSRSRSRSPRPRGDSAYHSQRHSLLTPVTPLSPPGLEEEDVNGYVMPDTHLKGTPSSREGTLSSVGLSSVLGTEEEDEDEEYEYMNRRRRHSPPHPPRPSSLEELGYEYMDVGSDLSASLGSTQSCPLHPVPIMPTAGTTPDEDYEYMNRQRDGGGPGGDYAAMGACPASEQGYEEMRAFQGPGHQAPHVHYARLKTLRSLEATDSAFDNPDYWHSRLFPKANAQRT
T6 sequence (P21860 20-643 limits assumed): as the sequence (P21860 20-643 limits assumed) above
T4 sequence (Q15303 26-1308 limits assumed): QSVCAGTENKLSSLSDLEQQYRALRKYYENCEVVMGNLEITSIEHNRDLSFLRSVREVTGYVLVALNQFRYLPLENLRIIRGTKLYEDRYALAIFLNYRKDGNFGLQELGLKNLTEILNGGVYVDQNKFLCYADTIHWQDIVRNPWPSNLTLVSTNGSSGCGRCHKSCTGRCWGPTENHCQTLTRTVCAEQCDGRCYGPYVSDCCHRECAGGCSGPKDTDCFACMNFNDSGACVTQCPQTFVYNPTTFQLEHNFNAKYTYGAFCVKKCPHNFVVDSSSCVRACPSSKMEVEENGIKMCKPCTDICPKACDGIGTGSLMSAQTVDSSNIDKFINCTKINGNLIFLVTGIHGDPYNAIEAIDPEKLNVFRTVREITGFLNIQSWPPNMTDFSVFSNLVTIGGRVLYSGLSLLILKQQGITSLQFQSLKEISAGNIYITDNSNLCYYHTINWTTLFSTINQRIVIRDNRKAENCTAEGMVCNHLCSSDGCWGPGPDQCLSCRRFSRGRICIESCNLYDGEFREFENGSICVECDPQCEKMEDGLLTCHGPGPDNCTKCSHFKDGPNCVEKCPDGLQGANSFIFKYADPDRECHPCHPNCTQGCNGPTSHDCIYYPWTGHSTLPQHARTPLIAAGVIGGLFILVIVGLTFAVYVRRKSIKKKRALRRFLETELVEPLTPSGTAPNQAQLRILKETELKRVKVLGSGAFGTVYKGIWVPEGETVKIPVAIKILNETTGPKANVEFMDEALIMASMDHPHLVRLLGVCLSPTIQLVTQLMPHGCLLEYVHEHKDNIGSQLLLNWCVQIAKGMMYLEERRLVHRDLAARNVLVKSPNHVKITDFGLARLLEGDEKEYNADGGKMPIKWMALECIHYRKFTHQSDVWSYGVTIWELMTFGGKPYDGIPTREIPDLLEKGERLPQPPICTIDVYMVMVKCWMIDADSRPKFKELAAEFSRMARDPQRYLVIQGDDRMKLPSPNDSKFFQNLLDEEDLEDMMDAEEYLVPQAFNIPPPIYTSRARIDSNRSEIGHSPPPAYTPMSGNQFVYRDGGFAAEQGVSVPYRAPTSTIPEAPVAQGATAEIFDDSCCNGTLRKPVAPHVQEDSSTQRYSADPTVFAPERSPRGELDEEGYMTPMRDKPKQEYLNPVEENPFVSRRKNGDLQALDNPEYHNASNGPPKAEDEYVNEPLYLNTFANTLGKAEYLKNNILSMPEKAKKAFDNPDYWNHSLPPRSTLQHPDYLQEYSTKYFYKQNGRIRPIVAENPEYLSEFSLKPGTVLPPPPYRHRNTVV
T5 sequence (Q61526 20-1339 limits assumed): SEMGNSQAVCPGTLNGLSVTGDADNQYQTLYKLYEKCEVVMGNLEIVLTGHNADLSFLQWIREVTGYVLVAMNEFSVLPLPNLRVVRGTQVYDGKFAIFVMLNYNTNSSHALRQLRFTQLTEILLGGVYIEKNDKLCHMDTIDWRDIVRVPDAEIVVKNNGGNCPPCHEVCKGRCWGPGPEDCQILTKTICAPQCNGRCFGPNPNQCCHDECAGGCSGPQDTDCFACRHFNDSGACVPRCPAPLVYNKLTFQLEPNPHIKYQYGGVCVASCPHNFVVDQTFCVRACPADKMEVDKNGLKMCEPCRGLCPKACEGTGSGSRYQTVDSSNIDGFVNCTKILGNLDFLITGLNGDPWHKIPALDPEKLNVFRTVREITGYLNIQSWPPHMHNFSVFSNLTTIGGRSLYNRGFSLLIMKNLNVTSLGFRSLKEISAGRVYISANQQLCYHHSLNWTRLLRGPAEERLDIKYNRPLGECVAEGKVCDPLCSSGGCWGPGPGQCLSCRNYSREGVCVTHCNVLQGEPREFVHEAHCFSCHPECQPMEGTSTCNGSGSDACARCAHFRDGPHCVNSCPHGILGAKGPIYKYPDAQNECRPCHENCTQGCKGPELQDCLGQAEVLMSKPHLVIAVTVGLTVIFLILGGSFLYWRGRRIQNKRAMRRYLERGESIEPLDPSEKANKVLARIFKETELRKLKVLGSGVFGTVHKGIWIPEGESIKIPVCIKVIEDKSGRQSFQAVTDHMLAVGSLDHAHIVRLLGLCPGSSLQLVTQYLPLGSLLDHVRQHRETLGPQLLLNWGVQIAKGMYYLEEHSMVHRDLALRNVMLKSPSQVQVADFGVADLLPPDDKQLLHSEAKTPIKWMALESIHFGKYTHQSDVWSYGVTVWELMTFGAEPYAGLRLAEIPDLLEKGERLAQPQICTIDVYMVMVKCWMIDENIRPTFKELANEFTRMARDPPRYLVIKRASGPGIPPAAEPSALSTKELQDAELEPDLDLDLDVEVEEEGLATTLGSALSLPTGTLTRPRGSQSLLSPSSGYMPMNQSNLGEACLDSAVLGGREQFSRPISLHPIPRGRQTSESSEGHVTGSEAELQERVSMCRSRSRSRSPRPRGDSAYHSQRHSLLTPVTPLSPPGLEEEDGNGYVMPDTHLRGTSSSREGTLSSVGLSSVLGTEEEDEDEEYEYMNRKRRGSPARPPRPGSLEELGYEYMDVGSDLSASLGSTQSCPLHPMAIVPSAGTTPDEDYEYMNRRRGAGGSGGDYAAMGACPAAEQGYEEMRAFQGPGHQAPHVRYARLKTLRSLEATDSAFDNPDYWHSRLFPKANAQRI

| Binder | % Receptor Internalization (T47D cells, FACS) [1] | IC50 of inhibition of pHer3 (MCF7 cells stimulated with rhNRG1-β1, ELISA) [2] | IC50 of pAKT inhibition (MCF7 cells stimulated with rhNRG1-β1, ELISA) [3] | binding result [4] | binding result [5] | binding result [6] | binding result (mouse HER3/ErbB3) | Kd [7] | IC50 (Her3/Avi/His10 receptor [8]) | IC50 (Her3/Avi/His10 receptor [9]) | IC50 of pERK inhibition (MCF7 cells stimulated with rhNRG1-β1, MSD) [10] |
| --- | --- | --- | --- | --- | --- | --- | --- | --- | --- | --- | --- |
| B1 | 14% | 4.98 nM | 45.2 nM | no binding | no binding | no binding | binds | 1.6 nM | 12.7 nM | 11 nM | – |
| B2 | 13% | 2.91 nM | – | no binding | no binding | no binding | binds | 5.5 nM | 72.8 nM | 42.6 nM | 290 nM |
